Source: PMC4316792, “The dehydrogenase region of the NADPH oxidase component Nox2 acts as a protein disulfide isomerase (PDI) resembling PDIA3 with a role in the binding of the activator protein p67^phox” (Frontiers in Chemistry, 2015)

B1: p67^phox(1–212) [not stated] / Nox2 peptide 24 (357–371) with an intramolecular disulfide bond between C369 and C371 [modified: biotin on the N-terminus; C-terminal amide; intramolecular disulfide bond between C369 and C371; biotin on the … (parent complex)
chain 1: MSLVEAISLWNEGVLAADKKDWKGALDAFSAVQDPHSRICFNIGCMYTILKNMTEAEKAFTRSINRDKHLAVAYFQRGMLYYQTEKYDLAIKDLKEALIQLRGNQLIDYKILGLQFKLFACEVLYNIAFMYAKKEEWKKAEEQLALATSMKSEPRHSKIDKAMECVWKQKLYEPVVIPVGKLFRPNERQVAQLAKKDYLGKATVVASVVDQD
chain 2: SGSGIVGDWTEGLFNACGC

Variants of: B1
Experiment: peptide-protein binding assay (surface-attached biotinylated peptide, protein in solution, kinetic TMB oxidation read-out); 10 min kinetic experiment; read off a plot

Variant	response
chain 1 MSLVEAISLWNEGVLAADKKDWKGALDAFSAVQDPHSRISFNIGSMYTILKNMTEAEKAFTRSINRDKHLAVAYFQRGMLYYQTEKYDLAIKDLKEALIQLRGNQLIDYKILGLQFKLFASEVLYNIAFMYAKKEEWKKAEEQLALATSMKSEPRHSKIDKAMESVWKQKLYEPVVIPVGKLFRPNERQVAQLAKKDYLGKATVVASVVDQD [chain 1 C40S, chain 1 C45S, chain 1 C121S, chain 1 C165S]	~12 Absorbance (650 nm) x 1000/min
